Experimental findings from article PMC8998802 are described below.

The target in the assay is CaVβ2a residues 203 to 425, His-tagged. The experiment in a line: MST.

The substance AID-CaV2.1 peptide showed a Kd of 18.3 to 93 nM.
The figure for AID-CaV2.2 peptide is 12 to 208 nM.

The term Kd denotes a measure of binding affinity in units of concentration. Low readings indicate tighter binding, high ones weaker binding.
